Measurements from the supplement of paper PMC9170038.

test system: K4 kissing-loop RNA reporter; experiment: apparent KD of K4 kissing-loop reporter; higher = weaker reporter binding; conditions: Eterna round: R107; input ligand: arginine 13.2 mM
Method: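 RNA-MaP round R107: designed RNA switches with theophylline, tryptophan, arginine or FMN aptamers are transcribed on-chip within common flanks. They are titrated with a labelled K4 kissing-loop RNA reporter in RNA-MaP buffer (100 mM Tris pH 7.5, 80 mM KCl, 4 mM MgCl2), without ligand or with the indicated ligand. Median apparent KD per design.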
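Further: bound reporter read as fluorescence of individual clusters on recovered sequencing chips by microscopy, with normalized cluster intensities fitted with a binding model.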

Sequence	apparent KD of K4 kissing-loop reporter [nM]
UUCUACGAGUGAUGUUCGUAGUGUAAUCGCUAGGAUAUCGUUUUUUCGAGAAGGAGCGUCGAAGUGAUACGAAAGUAUCGCUUCG [FMN A 13]	258
UGUCAUUGGUCGGCCGCCACUAGGACCGGGACUUCUCUAGUGAUGUUAGUCUGGUCGGCCGCCACUAGGACCGGGACCGAUGACU [KL-SSTryp-B14 #DoubleAptamer]	368
AACAGCAAUGCGGCCGCCACUUCGAGUUCAGUGAUGUUGAAAGAAUUAAAUAAAGAUCCCAAGAGGAGGACCGGGCAGUGCUGUU [Default title]	448
GUAGUUGCGCAAGGAUAUUAGUUAAGUGAUGUUUGAUUCGGUAUUGUUUACGUACACUGACCCGAUUAAGAAGGUGCGGGCAGCG [theeternabot_exclusion_KL_FMN_B_50]	582
AAAUUUAUAUUAGAUACCAGCAAAUUGAAAGUUUAUUAUGACAAGAGUGAUGUUCUUGUAUGCCCUUGGCAGCUGGUAUGGGUUU [KL-XTheo-B26]	106
AAAUAAAGCAGUCACCCAGUGAUGUUGGAAGGAGCGUGCGAAAGCACAGGUAGGUCGCCGAUAAAGGACAAAGUCCGUGGCUGCA [#SwitchBubble 29 #K4Early]	350
UGAUAGGACAGAAGGAGCGGGCUAGUCAAAGACUAGCAAACGUUAAUAACAGGAGUGAUGUUCCAGGUAGGUCGCUGUCCUAUCU [ArgBX 25 #SwitchBubble #StaticStem]	120
UUUCGUAGAAGUGAUACCAGACUUGAAAGUGAUGUUUUCCAAUAAUUUAAAUUUUUAGCUGUCCCUUGGCAGCACAGUUUAUUUA [JR_Nu_ExcTheophyB_Sub026]	298
GGUGUUGUUUGUGCUGUUUUCCUCGUUUCUCGAGGACCGGUACGGCCGCCACUCGAGUGAUGUUUGGGUAGCGAUCCUUGUUAGU [Bdazzled - #6 Exc. Tryptophan A]	215
UUAUAUUUCAGUGAUGUUGAAAAUAUAACAGAGGAUAUGCGUUUAAGCAGAAGGCUGAAAUACUAUACUUUAAUCUAUUAAAUUU [JR_Nu_SSFMNA_Sub027]	356
GGAUAGGAUAGAGGAUAUGGAAAACACAGAAGUGACUUGUUGUGUUUAUCCAUAGGGAGUGAUGUUCCAGAAGGCUGUCCUAUCG [MatMod 22 - Jieux - Exclusion - FMN B]	206
UGUACCGAGUUAGGAUAUGUCGUCGAAAGACGAAAUGGAGUGAUGUUCCUUAAACUGCGAAAGCAGACAGAAGGGACUUGGUACU [FmnBS 29 U11]	473
AGAAACUUGUAUGUCGGGUGUGCGCGCGAUACCAGCCAAAUGGAUGGCCCUUGGCAGCGCAGCGAGUGAUGUUCGCCCGCUUGAC [Exclusion Theophylline A GF 22]	239
AGCAGUCCAGGAUCGAAAGAUCCUGAGGUCCGAGGACCGGUACGGCCGCCACUCGGAGUGAUGUUCCGAAGACUGCAAAAUAAAA [#SwitchBubble 5]	236
GAGAUAGAGGCGGCCGCCACUAGUGAUGUUGGUGAUGUUAGAUAGAGAAUAGAACGGGUACUCCCUAGGACCGGGCCAGAUGGAG [#04 K4 Tryptophan B Exclusion]	34.9
AGUGCACUGGCAGGAUAUGUACAGUGAUGUUGUGUAUGUCAGCAAGUCAAAGACUUGCUCUUCUGUGCAGAAGGGCCUGUGUACA [#05 K4 FMN B Exclusion]	526
AGCUCAGAGUGACUCGAUAAGAGUCACAAACGAGGACCGGUACGGCCGCCACUCGAAAUAACGAGAGUGAUGUUUUCGCUGAGCA [FiskerMod 6 - Jieux - Same State Tryptophan A]	630
UAAACCAAAUUACGUCACCUUGUCCAAUCUAAGGAUAUGUGAUUCCACAGAAGGUAGCCACGGGAGUGAUGUUCGCGUUAAGGCG [theeternabot_exclusion_KL_FMN_A_31]	388
GUGCAGUGAUGUUGCACGAGGAAAGACGAUACCAGCCGUAAAUAAGGCCCUUGGCAGCGUGGACUAGCAUAAAGUAUGCUAGCCU [Isenaonle]	104
CGUACGGUUUCUUUCUUUCCGUACGAGUGCCGAGGACCGGUACGGCCGCCACUCGCUACAGCCUAGUGAUGUUAGGAACGUGUUA	73.1
CCGAAGAACCAGUGAUGUUGGUUGACUAGACAGGAUAUGAGCAACAUCAGAAGGGUCUGGCUUCGGGAGUAGGUCGCGCUGACCC [Diarrebi]	231
GGCGGCUGCGCGCAAGCGCAGCCGGCCGAUACCAGCGCGACGGCGCGCCCUUGGCAGCGGCGCCGAGUGAUGUUCGGCCUGCCGG [#2 Same State - Theophylline A Attempt #19 (HarryS)]	380
GCGCGUCAUGUCAGCGGUGACACUGUCGAUACCAGCGCCGCAAGGCGCCCUUGGCAGCGACGUGCUGGAGUGAUGUUCCAGCGUC [#2 Exclusion - Theophylline A Attempt #22 (HarryS)]	113
GGGAGAAGAGCGGCCGCCACUCAGACAGCAGCAGAAUAUAGUGAUGUUAUAUAGGAAAGGCGGAGGAGGACCGGGCUUAAGAGGG [#20 K4 Tryptophan B Same State]	303
AGAUAGGGCUGAAGGAGCGUCGGAAAAGAAAAGAUGAAAUCCAGUGAUGUUGGAUAAAUCCGACAGGUAGGUCGCAGUUUUAUGA [#01 K4 Arginine B Same State]	129
GGCAGUGAUGUUGCCUAAGCAACGCAUGCAGAGGAUAUUCGUUCGGGAAGAAGGCUGCAGCGUUCUCUCGCGAGUGAUGUUCGCG [Same State FMN A GF 23]	137
